B1: Structural maintenance of chromosomes protein 1 (Saccharomyces cerevisiae), P32908 (parent)
chain: MGRLVGLELSNFKSYRGVTKVGFGESNFTSIIGPNGSGKSNMMDAISFVLGVRSNHLRSNILKDLIYRGVLNDENSDDYDNEGAASSNPQSAYVKAFYQKGNKLVELMRIISRNGDTSYKIDGKTVSYKDYSIFLENENILIKAKNFLVFQGDVEQIAAQSPVELSRMFEEVSGSIQYKKEYEELKEKIEKLSKSATESIKNRRRIHGELKTYKEGINKNEEYRKQLDKKNELQKFQALWQLYHLEQQKEELTDKLSALNSEISSLKGKINNEMKSLQRSKSSFVKESAVISKQKSKLDYIFKDKEKLVSDLRLIKVPQQAAGKRISHIEKRIESLQKDLQRQKTYVERFETQLKVVTRSKEAFEEEIKQSARNYDKFKLNENDLKTYNCLHEKYLTEGGSILEEKIAVLNNDKREIQEELERFNKRADISKRRITEELSITGEKLDTQLNDLRVSLNEKNALHTERLHELKKLQSDIESANNQEYDLNFKLRETLVKIDDLSANQRETMKERKLRENIAMLKRFFPGVKGLVHDLCHPKKEKYGLAVSTILGKNFDSVIVENLTVAQECIAFLKKQRAGTASFIPLDTIETELPTLSLPDSQDYILSINAIDYEPEYEKAMQYVCGDSIICNTLNIAKDLKWKKGIRGKLVTIEGALIHKAGLMTGGISGDANNRWDKEEYQSLMSLKDKLLIQIDELSNGQRSNSIRAREVENSVSLLNSDIANLRTQVTQQKRSLDENRLEIKYHNDLIEKEIQPKITELKKKLDDLENTKDNLVKEKEALQNNIFKEFTSKIGFTIKEYENHSGELMRQQSKELQQLQKQILTVENKLQFETDRLSTTQRRYEKAQKDLENAQVEMKSLEEQEYAIEMKIGSIESKLEEHKNHLDELQKKFVTKQSELNSSEDILEDMNSNLQVLKRERDGIKEDIEKFDLERVTALKNCKISNINIPISSETTIDDLPISSTDNEAITISNSIDINYKGLPKKYKENNTDSARKELEQKIHEVEEILNELQPNARALERYDEAEGRFEVINNETEQLKAEEKKILNQFLKIKKKRKELFEKTFDYVSDHLDAIYRELTKNPNSNVELAGGNASLTIEDEDEPFNAGIKYHATPPLKRFKDMEYLSGGEKTVAALALLFAINSYQPSPFFVLDEVDAALDITNVQRIAAYIRRHRNPDLQFIVISLKNTMFEKSDALVGVYRQQQENSSKIITLDLSNYAE
partner: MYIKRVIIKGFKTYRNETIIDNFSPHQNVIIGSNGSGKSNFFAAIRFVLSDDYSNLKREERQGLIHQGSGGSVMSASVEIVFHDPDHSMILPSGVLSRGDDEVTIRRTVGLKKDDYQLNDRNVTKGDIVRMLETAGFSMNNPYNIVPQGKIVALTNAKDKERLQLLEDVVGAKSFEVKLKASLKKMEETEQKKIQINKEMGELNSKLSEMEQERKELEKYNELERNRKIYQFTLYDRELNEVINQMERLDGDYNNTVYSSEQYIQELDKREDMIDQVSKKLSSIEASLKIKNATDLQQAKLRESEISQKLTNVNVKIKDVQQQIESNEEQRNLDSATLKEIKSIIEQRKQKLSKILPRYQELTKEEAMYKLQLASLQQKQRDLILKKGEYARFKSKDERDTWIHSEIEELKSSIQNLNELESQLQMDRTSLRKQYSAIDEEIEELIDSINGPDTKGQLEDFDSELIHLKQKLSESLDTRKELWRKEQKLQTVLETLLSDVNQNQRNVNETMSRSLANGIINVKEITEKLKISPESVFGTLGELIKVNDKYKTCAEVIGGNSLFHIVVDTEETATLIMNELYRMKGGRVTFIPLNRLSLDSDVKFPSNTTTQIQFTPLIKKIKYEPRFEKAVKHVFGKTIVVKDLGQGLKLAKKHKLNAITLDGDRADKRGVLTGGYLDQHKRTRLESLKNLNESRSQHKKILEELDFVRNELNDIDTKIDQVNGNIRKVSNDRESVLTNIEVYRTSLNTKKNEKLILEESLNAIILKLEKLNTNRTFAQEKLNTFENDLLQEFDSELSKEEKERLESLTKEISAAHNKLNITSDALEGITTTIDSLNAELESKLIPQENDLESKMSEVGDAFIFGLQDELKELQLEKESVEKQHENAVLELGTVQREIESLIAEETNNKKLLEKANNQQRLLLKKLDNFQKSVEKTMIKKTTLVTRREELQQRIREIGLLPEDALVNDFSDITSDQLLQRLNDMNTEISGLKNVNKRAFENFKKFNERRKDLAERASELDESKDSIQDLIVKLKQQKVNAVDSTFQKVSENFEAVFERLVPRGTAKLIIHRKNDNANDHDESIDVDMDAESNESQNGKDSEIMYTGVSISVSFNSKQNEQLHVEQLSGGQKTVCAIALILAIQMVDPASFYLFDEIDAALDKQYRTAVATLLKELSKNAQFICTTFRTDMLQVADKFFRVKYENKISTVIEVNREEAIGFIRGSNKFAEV
B2: Structural maintenance of chromosomes protein 3 (Saccharomyces cerevisiae), P47037 (parent)
chain: B1 partner
partner: B1 chain

Variants of: B1
Conditions: with smc3_yeast SMC3, P47037

Variant | effect of a mutation on the interaction
K554D | decreasing interaction
K661D | decreasing interaction

Variants of: B1
Conditions: with smc3_yeast SMC3, P47037
Remark: another data set of the same source

Variant | effect of a mutation on the interaction
M665R | disrupting interaction

Variants of: B2
Conditions: with smc1_yeast SMC1, P32908

Variant | effect of a mutation on the interaction
R665A | decreasing interaction
K668A | decreasing interaction
R669A | decreasing interaction
